The results in this text go back to the NTF2 design screens of Basanta et al. (2020).

The data set can be described thus: protease stability score; higher = more stable; yeast display proteolysis, trypsin and chymotrypsin.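 Note: relative to predicted unfolded state with 0 unfolded-like and 1 meaning tenfold more protease.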
“SHEDHLVDLAFEVWRRDLETGDEDLLKKLVDPNVRIIQGDKMYHGMDDYVERLRRIWEELGVDYIQVHLEHSRQVNGVAELDVRLKLRIGDKRREYRLHLHIEKVNGKWQIKQINIQ” displayed a protease stability score of 0.277. Turning to “TEDEEYVKHIIDLFWHVKKTGDESHMKELADPNVRIEVDGRDIIGMEDVLKWEKDHREKIKGIRLNVHQWRIIGNKVESDLIVNINGVTIEFHVTVIIVNGKLHSLRVEFE”, the protease stability score amounted to 1.21. Sequence “DEILHAWSRALTILLEIWKTGNEEEVEKMFDPNTRLIIGDKILHGREHIEDFVRRVDVADMHEFRVHDSHKYGEKIDIDGHVTGRLVIGDKEVRQETRVRSIIIKVDGKWIIHRLTFI” displayed a protease stability score of 0.907. Consider “SEVEKMARHFVELLSKALLTGNWKTIKELVDPNDLLVVGDKIFHGWDVREEERKRFDHHVMDVKVDHHRDIDGRIEMETTLHLDVNINGVRFHFNHETEMIVRKVNGRWILKSETIR”, for which the protease stability score was 0.087. Under “DELDEILVRIAEMVVEIWETGDWEWLEHLLDPHVRLQIGDKEVHGREAIREMIHELLNKLPNIRSHIRLREVRYYNGKAHFNTELRLHINGRDLRSRVRYEILVVDGRVRSMHVEIR” stands 1.09; under “QEDEKLADEVVERIAHDIHTGDEDSLRHLMDPHVRLQVGDKRYIGRESVLEFLRQLRIEVEDVKIHDIHVVNGQMHSDTRIHGRIFVNGRDIETTLRSKHILLKYDGKWLWHSWHIH”, 1.31. “SEEEHLAREMTELHKQAELTGDEHFLNELMDPHVRIDINGVPAIGWEESNEVLKRIWEEMRIDDIRPTHVELQGNKIHVHVQSHITIDGQRRIFHERIVIVVFNGRMREVKFDIH”: the protease stability score was 1.19. In turn, “SEEHHSEKLAIHLSKEISHTGDETWIKKMLDPNVKIVIGDKEFHGMENFVTHWHRLVKELGVDRVRHRVEDSDVQGDKLTMHVEIEVNGRKVESHIIAHKFNGRWLVKEIIFH” gave a protease stability score of 1.23. Under “DEEHKLAEHYLRIWIHALITGDFHKILHLMDPNVRNEVGDKEVHGREEWEKFLKRVKNVVIEHVELDHLLVVDGRVHIRVTLHMSYGDKTEDHDIHVLMHKVDGRWYIKSIHVK” stands 2.43; under “DEDTRKIYHWAELIVELLMTGDEDILHELADPDVKVHINGVTLHGREEADKFLEEWLRRFKNIQIRIRRITVINGRVDVESEVNVGDKRKDSRIHATVVNGRWKIISMDDH”, 1.42. “DEEKRDVDDAKEVWDRIFKTGDEHQLERNFDPNVRQHIDGREHVGREEFRKEFHKILLLLGVKHLRIEFHDEEYQGDKIILRGTLFFEVNGRIEIWIVTIIARKVNGQWLVHTVHHN” yielded a protease stability score of 0.425.

Take “SEEQDWLREALEIFEKTIHTGDEDTSKELADPHVRSIINGKDFVGMEIWTKILEELNKRYDHIELVFHKVENINGRVIIHGTDTIRVDGVERKIDTIIYARKVNGKWLSKSVEMR”: the protease stability score worked out at 1.34. As for “SEHETEVMRLAEITVKSFLTGDEDTMHHLLDPHVRSDVNGRHHIGRERWLKVVEDMLRHLRLTTIEIHHVDAINGRLHTDTRVNVHINGQEVILETELIIVIVDGVVKEVHWVVK”, the protease stability score was found to be 0.994. In turn, “DELEEELETAERISHEVLDTGDERIWSKLIDPNARLQIGDKEYHGREEVQRFFLEFGFKVSDIHSVKVQGDKIHVDTRSRVDGKEIELQLNSEKINGKWVLRHIHVWKR” yielded a protease stability score of 1.28. Under “DEDREWIERFNRILIESLTTGDEHTLKELIDPNARLVINGRDIHGREEFVRLLSEMGVKHFHVHDVKVVGNKAVTRGILYFNGREYDVDVFTRKIDGRWLYESLEVK” stands 2.02.

With “DEDEKWAERFLELLIRSLVTGDEKTLEELADPRVKVEIGDKILHGRDEFERFIHEARIKSVHVRRMTDINGVMLMDGETTGNIDGVDRRRRTRIWVLKINGQWHLHSYQVV”, the protease stability score is 1.41. As to “DEDTARKQVQIYKDNDPNQLVRMFDENARLKVGDQTVDGREELERWVKRLRTRVDRYSYKNVDIQGERVVIDMVMVVDGKQVEFVVEFVVEDGRIKNAKVQARNKDEETKLQEAIG”, the protease stability score was found to be 1.37. Under “NHEEEERHETFRIFLESVRTGDWKNTEKLLDPNARQVWNGKVLHGRESVIEVMRELRVDSLDVKSFDIQGEKAIMHGESEGVFNGKRLNMTLETHLVKVDGKWFLRELVII” stands 1.23. The figure for “TEKEELYRKIYELLENLLFTGDEHAWRNNMDPHVKILLNIDGKIHDLHGWHAWHLVLRLLGIDHMEFKDFHVQGDKFHLELTVDFDGREHIMRVDIIVVNGKITSVRVSIE” is 1.37; for “DKEEELSEIAHKIWIHELHTGDFESLEKNMDPHARIIQGDWHYHGRESVYHVFSRIVRMLGVKHIEIHSMEVINGQVHLDTRLHAEGHSRNTHVFFVKINGRWLSKEFEIK” it is 0.711; for “DEQERRSRELLHLWLELFETGDEDNMQEFLDPNVRLIIIQGDNQVNHHGWENMVKIAKFYKNMQIKVHDVEFQGDKVIMDTRLLVDGRLRHTTVILDIVNGVIKHVEIRYS” it is 1.69. For “DESKEVSEDALRIMIELIKTGDEHLLQRYIDPDVRVDVNGRHTHGWHWVVRQIFEEIKRVDHMRIHLDSERVFNGRVHLDVTIHVHINGVEIDIKITLTFHKFDGRWLFHHIKHK”, the protease stability score was 0.195.

In turn, “DEDDRLAEDLLRLIYHALQTGDEKHLEDFMDPHTQIIIEWNGVRDDTHGREEFSRKFHEQVRELRVHFHQNSIHVINGRAHNDGRLELNINGKIIKLKVILEIQVINGRIKEIRIIVR” displayed a protease stability score of 1.95. For “TEHEKFKEEWVRMFLRDWLTGNENTLRHLADPDTLLEINGRIFHGMHTISRWTEEHLRRIDHLRLEMHTVDVIGDFAHVHGTLKLHVGDKEHHVTFHINLFTINGRIKSIIVKEE”, the protease stability score was found to be 1.43. The sequence “HEDDHAVRKTIEDLLRSITTGDFELYSKLADPNTRFNIDGVNDVGMEIWVEKAIQHGWKVRHFHIRDVEVQGDKIDVDLKIDEDVNGRRIDIHVLLIIRKIDGRWILESVEHV” returned a protease stability score of 1.64. The sequence “DEREKFLEEMVEEWFRNWVTGDEDRFEELADPDVRFHIGDKDSHGREAFEELMKRMGFKYKHIELHDVHIQGDKSHIDGHVQGQVNGQERDSHVHLDLVVVNGRLRTMEVRFR” registered a protease stability score of 1.44.

As to “DHEEEEAERMARKIIHVLHTGDFDSWSHLADPNVRIEVGDKELHGREDLRKLFHLWDERFKNATIMVKDMRVQGNKVHLDHRLNIDGRTIHTTSEIIVINGRIHTVIIDEK”, the protease stability score came out at 2.29.

“SREEEIAHDVFREWIESFRTGDEDHRTEMMDPNARVFVNGVEFVGRDEIVRFFRHLRFDNSRHEIKSVRVVDGVAHIDSHLELHGTVNGQRDRVSYKLNVHTSKIDGKWVITEVKVK” displayed a protease stability score of 2.03. Sequence “SEEDEQSKKILHIFIEILKTGDFETLEHMLDPNAKLDIDGRDLHGRELFLSMWEEFVRQYKNLRIIFRDYRLYGDYVIIHGQLRINGKTHDLRFHIVNINGRLKHLKIEHE” gave a protease stability score of 1.46. In the case of “DEDEEITERIIRLLLNAWMTGDEEMLKRLFDPHVRIDQGDKNLIGWEELERETRRIDHIRLDLRIKHIKVYDGRVEINSFLHVDLHINGVTLHHELRMHIIIEKVDGRWIIHSQKLE”, the protease stability score was determined as 1.25.

Turning to “TEDWELMKKAMEDLSRDLSTGDFERINRMLDPHTKLVVGDKEHHGMHAWEIFVKRIDHERSVEVRHFRIIGDKIDIDGTLHAEYGEKRITLKVHIIDSKVNGKWVIEVLSFK”, the protease stability score came to 1.4. On to “DDHEKDLTDMARRNYHWWKTGDFDRVIDLLDPTTRLIVGDKKFHGWDEFSHALELFRKQLRPNDSKLKREEVYGDKMVIHSHLHGTVDGKEVHHDVIFTFVIIDGRIHLIIIEPR”, for which the protease stability score was 0.516. Under “DEDEKYMQEFLERLWRDLYTGDEESLTRRMDPRTRVDINGVDIHGMERVTEHIKHLVDRADHIELIIHTVNNVDGRAHNDGILVIKVNGREIRIETHFVLLKVDGRWRIQSEEYR” stands 0.399; under “REEEENMRHFYKLMEHSLHTGDEDTLRRLFDPDARILIDGREHHGMEFILQLLHHIRLRVHDTKIEDIEHQGEWLHMHTRIDIYYNVDGQEVRVDTNVRLHAHKVDGRWFVRSYERG”, 0.748.

Take “DEEEKVIKDVVDMLRKALRTGDEERIRELADPDVRIEQGDKELHGRELWLEWLKEIRTERVILHVRRVRHFNGKIINEIEVRMDVRVGEFRHESTVSTILIMEKFNGRWHIRSMIIE”: the protease stability score amounted to 1.5. The sequence “HEEHEEAWHEIELTYHLLNTGDFDEMNRLLDPNVRIHIGDKRYHGRHELDLLITKLGVKHVRWEVKHADIQGDKVDMDTIVHITQGDKEIRRDTRIKIRKIDGKWFVTELHVT” gave a protease stability score of 1.28. Under “DEIEHMIHEIFERWIKAWLTGDWRTIEKLFDPDVRVEINGVEIIGRELMSKVLIRKYDEMRSRVKLESEHAQGDKAHFNVNIILHIGDKTIERRSRIHIRIYNGRIHEVRVEED” stands 2.4. The figure for “DEEEESTKRVAKVLHHTNRTGDEKTMNEMLDPNAKQDYNGRINIGWERILEVLREWKDRLGLTRIELHIHDFDIQGDKARIDTTVDFNGVEFKLIIYVRKIDGKWVLERIEVR” is 0.368.

The sequence “DEDERDTREAIELFRESIRTGDERILEEMVDPNVRLEFNGKHHHGMEHLVKWFSFLAKHWRVDIDLHHLEVQGDKVHSDERIDLVQGDKIVHTEVKIIFRKINGRWLMHKIRIN” yielded a protease stability score of 1.4. The sequence “DEMKEWIRELIERWTHAFLTGDEDELKRLVDPHAKLDINGRDVIGREDFVEHLRRLFEELGVKHVSSRMRDIKIVNGRAHVDSEFRLRVGEKQESHRMHIISDKYNGRWVIQSIHVE” returned a protease stability score of 1.93.

The sequence “DHHEELVERIAREWIHAWKTGDEKRLRELMDPHVRMNFNGQELHGRELVTNFLHEFLERFDHQEHHIKRFTVVNGVMHIDGELDLNFDGRRYRHRVHIHIFVFDGRVKHVEIEIR” gave a protease stability score of 2.29.

“SEEEEEMEKVAKRWFWAVLTGNEDELHELLDPEAKSDVNGRDTHGREEVVRLMTEHVEKLGVDHVKVHDVKIQGNKFHFDGILIFNGVTVHSRVELDLINGKVHYMSIKLQ”: the protease stability score was found to be 1.1.

Take “DEIEHAVRLAYERWLHEFETGDEEETLRNADPDTMIVINGRHLHGREHFTRWLKRIDHQHMHHEDFTHIDHQGDKLHLNVHVSIEVEINGVRYVLEHENEIVQTKIDGQWILTYIIIR”: the protease stability score worked out at 1.25. Under “DEEHRVIHNAVRILLEAIRTGDEETLRRLLDPHTRIEIGDKELHGWKDAIKFERDVWEILGIDHSEIRIKHVRIIGDKIEVEGEIINYVNGKEIVLDTNLIMRKIDGRWVFKSRKVN” stands 1.23; under “DQEEQDIRRAIRLYLELLLTGDWKTLEKLIDPNVRLNFNGQEYHGMRDVLRLLKEILEELGIKHVHLHDERIQGDKVKVDTRVEINGKHSEVILVAEKINGKWVVHHLEHNHK”, 1.24.

“DEDEHDSEIAVKLFVRHMETGDEDVLREYADPRTKILVNGRETHGWETYVKHMQETINKLGVKHTHFELKDVEVQGEKIIAHVRIELNFENHHTTINMILIIHKVDGRWHLKKMKIK” showed a protease stability score of 0.871. “SELERLIMEMLHLLIELWLTGDEETLSKLIDPNTRLIVIQGDKHIIVHGRELVLHIMRRIREEIRFEDSRIRSMDAQGNKASINEEMHFRIGDKEVRFEREVEVWVIDGKLHSLVIRIK”: the protease stability score came out at 0.871.
